Target: T1, human eIF5-mimic protein 1 (h5MP1), wild type, untagged (human, UniProt Q9Y6E2 1-419)
T1 sequence (looked up): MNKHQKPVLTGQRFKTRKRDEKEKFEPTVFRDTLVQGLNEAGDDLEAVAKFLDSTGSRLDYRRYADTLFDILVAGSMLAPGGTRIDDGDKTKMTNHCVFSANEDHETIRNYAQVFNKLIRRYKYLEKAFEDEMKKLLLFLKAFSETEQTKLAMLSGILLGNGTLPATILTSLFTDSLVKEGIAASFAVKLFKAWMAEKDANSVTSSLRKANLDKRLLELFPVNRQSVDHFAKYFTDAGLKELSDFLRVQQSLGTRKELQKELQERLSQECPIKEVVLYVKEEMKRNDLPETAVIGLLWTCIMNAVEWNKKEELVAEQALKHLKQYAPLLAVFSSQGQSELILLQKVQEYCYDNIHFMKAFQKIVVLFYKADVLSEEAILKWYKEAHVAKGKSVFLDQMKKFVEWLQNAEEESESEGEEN
Test: ITC

B1: heIF2β_(53-136), GB1- and His-tags removed (domain or fragment, human, UniProt P20042 53-136, looked up)
chain: DLEADEEDTRKKDASDDLDDLNFFNQKKKKKKTKKIFDIDEAEEGVKDLKIESDVQEPTEPEDDLDIMLGNKKKKKKNVKFPDE
Q: B1 was tested. Which Kd did it give?
A: The Kd was 5 µM.

Source: publication PMC9403556 (STAR Protocols, 2022)
